Measured values: doi:10.1101/2020.10.14.340034

Target: nsp16 (2'-O-methyltransferase);nsp10 (SARS-CoV-2;SARS-CoV-2, UniProt P0DTD1;P0DTD1 6799-7096;4254-4392, |)
Experiment: competition

B1: Biotin-RNA N7-meGpppACCCCC-Biotin (ssRNA)
RNA: ACCCCC
modifications: 5' N7-methylguanosine cap (m7Gppp, cap-0); cap G not in strand
  apparent K (half saturation): 4.3 µM
